Where no end group is shown, it is not given here. [ ]: non-standard residue; d: D form. Aib = CC(C)(N)C(=O)O
Target: human GLP-1 receptor (human, UniProt P43220)
Experiment: cell-based or functional assay

B1: [Aib8,Glu23,Aib24,Val25,Aib30,Glu34,Lys35,Aib36,Lys37]-GLP-1-(7-37)-peptidyl-Glu-Phe-Leu amide (peptide)
peptide: H[Aib]EGTFTSDVSSYLEGE[Aib]VKEFI[Aib]WLVEK[Aib]KEFL-NH2
modifications: N-terminus assumed
SMILES: CC[C@H](C)[C@H](NC(=O)[C@H](Cc1ccccc1)NC(=O)[C@H](CCC(=O)O)NC(=O)[C@H](CCCCN)NC(=O)[C@@H](NC(=O)C(C)(C)NC(=O)[C@H](CCC(=O)O)NC(=O)CNC(=O)[C@H](CCC(=O)O)NC(=O)[C@H](CC(C)C)NC(=O)[C@H](Cc1ccc(O)cc1)NC(=O)[C@H](CO)NC(=O)[C@H](CO)NC(=O)[C@@H](NC(=O)[C@H](CC(=O)O)NC(=O)[C@H](CO)NC(=O)[C@@H](NC(=O)[C@H](Cc1ccccc1)NC(=O)[C@@H](NC(=O)CNC(=O)[C@H](CCC(=O)O)NC(=O)C(C)(C)NC(=O)[C@@H](N)Cc1c[nH]cn1)[C@@H](C)O)[C@@H](C)O)C(C)C)C(C)C)C(=O)NC(C)(C)C(=O)N[C@@H](Cc1c[nH]c2ccccc12)C(=O)N[C@@H](CC(C)C)C(=O)N[C@H](C(=O)N[C@@H](CCC(=O)O)C(=O)N[C@@H](CCCCN)C(=O)NC(C)(C)C(=O)N[C@@H](CCCCN)C(=O)N[C@@H](CCC(=O)O)C(=O)N[C@@H](Cc1ccccc1)C(=O)N[C@@H](CC(C)C)C(N)=O)C(C)C
- CRE luciferase EC50, 0% HSA: 0.396 nM
- CRE luciferase EC50, 1% HSA: 0.193 nM

B2: [Aib8,Glu23,Arg24,Val25,Glu34,Lys35,Aib36,Lys37]-GLP-1-(7-37)-peptidyl-Glu-Phe-Leu amide (peptide)
peptide: H[Aib]EGTFTSDVSSYLEGERVKEFIAWLVEK[Aib]KEFL-NH2
modifications: N-terminus assumed
SMILES: CC[C@H](C)[C@H](NC(=O)[C@H](Cc1ccccc1)NC(=O)[C@H](CCC(=O)O)NC(=O)[C@H](CCCCN)NC(=O)[C@@H](NC(=O)[C@H](CCCNC(=N)N)NC(=O)[C@H](CCC(=O)O)NC(=O)CNC(=O)[C@H](CCC(=O)O)NC(=O)[C@H](CC(C)C)NC(=O)[C@H](Cc1ccc(O)cc1)NC(=O)[C@H](CO)NC(=O)[C@H](CO)NC(=O)[C@@H](NC(=O)[C@H](CC(=O)O)NC(=O)[C@H](CO)NC(=O)[C@@H](NC(=O)[C@H](Cc1ccccc1)NC(=O)[C@@H](NC(=O)CNC(=O)[C@H](CCC(=O)O)NC(=O)C(C)(C)NC(=O)[C@@H](N)Cc1c[nH]cn1)[C@@H](C)O)[C@@H](C)O)C(C)C)C(C)C)C(=O)N[C@@H](C)C(=O)N[C@@H](Cc1c[nH]c2ccccc12)C(=O)N[C@@H](CC(C)C)C(=O)N[C@H](C(=O)N[C@@H](CCC(=O)O)C(=O)N[C@@H](CCCCN)C(=O)NC(C)(C)C(=O)N[C@@H](CCCCN)C(=O)N[C@@H](CCC(=O)O)C(=O)N[C@@H](Cc1ccccc1)C(=O)N[C@@H](CC(C)C)C(N)=O)C(C)C
- CRE luciferase EC50, 0% HSA: 1.08 nM
- CRE luciferase EC50, 1% HSA: 0.273 nM

B3: [Aib8,Glu23,Val25,Glu34,Lys35,Aib36,Lys37]-GLP-1-(7-37)-peptidyl-Glu-Phe amide (peptide)
peptide: H[Aib]EGTFTSDVSSYLEGEAVKEFIAWLVEK[Aib]KEF-NH2
modifications: N-terminus assumed
SMILES: CC[C@H](C)[C@H](NC(=O)[C@H](Cc1ccccc1)NC(=O)[C@H](CCC(=O)O)NC(=O)[C@H](CCCCN)NC(=O)[C@@H](NC(=O)[C@H](C)NC(=O)[C@H](CCC(=O)O)NC(=O)CNC(=O)[C@H](CCC(=O)O)NC(=O)[C@H](CC(C)C)NC(=O)[C@H](Cc1ccc(O)cc1)NC(=O)[C@H](CO)NC(=O)[C@H](CO)NC(=O)[C@@H](NC(=O)[C@H](CC(=O)O)NC(=O)[C@H](CO)NC(=O)[C@@H](NC(=O)[C@H](Cc1ccccc1)NC(=O)[C@@H](NC(=O)CNC(=O)[C@H](CCC(=O)O)NC(=O)C(C)(C)NC(=O)[C@@H](N)Cc1c[nH]cn1)[C@@H](C)O)[C@@H](C)O)C(C)C)C(C)C)C(=O)N[C@@H](C)C(=O)N[C@@H](Cc1c[nH]c2ccccc12)C(=O)N[C@@H](CC(C)C)C(=O)N[C@H](C(=O)N[C@@H](CCC(=O)O)C(=O)N[C@@H](CCCCN)C(=O)NC(C)(C)C(=O)N[C@@H](CCCCN)C(=O)N[C@@H](CCC(=O)O)C(=O)N[C@@H](Cc1ccccc1)C(N)=O)C(C)C
- CRE luciferase EC50, 0% HSA: 0.022 nM
- CRE luciferase EC50, 1% HSA: 0.015 nM

B4: [Aib8,Glu23,Val25,Glu34,Lys35,Aib36,Lys37]-GLP-1-(7-37)-peptidyl-Glu amide (peptide)
peptide: H[Aib]EGTFTSDVSSYLEGEAVKEFIAWLVEK[Aib]KE-NH2
modifications: N-terminus assumed
SMILES: CC[C@H](C)[C@H](NC(=O)[C@H](Cc1ccccc1)NC(=O)[C@H](CCC(=O)O)NC(=O)[C@H](CCCCN)NC(=O)[C@@H](NC(=O)[C@H](C)NC(=O)[C@H](CCC(=O)O)NC(=O)CNC(=O)[C@H](CCC(=O)O)NC(=O)[C@H](CC(C)C)NC(=O)[C@H](Cc1ccc(O)cc1)NC(=O)[C@H](CO)NC(=O)[C@H](CO)NC(=O)[C@@H](NC(=O)[C@H](CC(=O)O)NC(=O)[C@H](CO)NC(=O)[C@@H](NC(=O)[C@H](Cc1ccccc1)NC(=O)[C@@H](NC(=O)CNC(=O)[C@H](CCC(=O)O)NC(=O)C(C)(C)NC(=O)[C@@H](N)Cc1c[nH]cn1)[C@@H](C)O)[C@@H](C)O)C(C)C)C(C)C)C(=O)N[C@@H](C)C(=O)N[C@@H](Cc1c[nH]c2ccccc12)C(=O)N[C@@H](CC(C)C)C(=O)N[C@H](C(=O)N[C@@H](CCC(=O)O)C(=O)N[C@@H](CCCCN)C(=O)NC(C)(C)C(=O)N[C@@H](CCCCN)C(=O)N[C@@H](CCC(=O)O)C(N)=O)C(C)C
- CRE luciferase EC50, 0% HSA: 0.014 nM
- CRE luciferase EC50, 1% HSA: 0.005 nM

B5: [Aib8,Glu23,Lys24,Val25,Glu34,Lys35,Aib36,Lys37]-GLP-1-(7-37)-peptidyl-Glu-Phe-Leu amide (peptide)
peptide: H[Aib]EGTFTSDVSSYLEGEKVKEFIAWLVEK[Aib]KEFL-NH2
modifications: N-terminus assumed
SMILES: CC[C@H](C)[C@H](NC(=O)[C@H](Cc1ccccc1)NC(=O)[C@H](CCC(=O)O)NC(=O)[C@H](CCCCN)NC(=O)[C@@H](NC(=O)[C@H](CCCCN)NC(=O)[C@H](CCC(=O)O)NC(=O)CNC(=O)[C@H](CCC(=O)O)NC(=O)[C@H](CC(C)C)NC(=O)[C@H](Cc1ccc(O)cc1)NC(=O)[C@H](CO)NC(=O)[C@H](CO)NC(=O)[C@@H](NC(=O)[C@H](CC(=O)O)NC(=O)[C@H](CO)NC(=O)[C@@H](NC(=O)[C@H](Cc1ccccc1)NC(=O)[C@@H](NC(=O)CNC(=O)[C@H](CCC(=O)O)NC(=O)C(C)(C)NC(=O)[C@@H](N)Cc1c[nH]cn1)[C@@H](C)O)[C@@H](C)O)C(C)C)C(C)C)C(=O)N[C@@H](C)C(=O)N[C@@H](Cc1c[nH]c2ccccc12)C(=O)N[C@@H](CC(C)C)C(=O)N[C@H](C(=O)N[C@@H](CCC(=O)O)C(=O)N[C@@H](CCCCN)C(=O)NC(C)(C)C(=O)N[C@@H](CCCCN)C(=O)N[C@@H](CCC(=O)O)C(=O)N[C@@H](Cc1ccccc1)C(=O)N[C@@H](CC(C)C)C(N)=O)C(C)C
- CRE luciferase EC50, 0% HSA: 0.487 nM
- CRE luciferase EC50, 1% HSA: 0.174 nM
